Biological target: Human recombinant SMAC (10339-H08E), Sino Biologicals (human) (UniProt Q9NR28)
Experiment: microscale thermophoresis; fluorescently labelled SMAC (1 µM) with purified PSD (78-625 nM)

Chain of Human recombinant SMAC (10339-H08E), Sino Biologicals (human) (Q9NR28 56-239 limits assumed, stated change not applied): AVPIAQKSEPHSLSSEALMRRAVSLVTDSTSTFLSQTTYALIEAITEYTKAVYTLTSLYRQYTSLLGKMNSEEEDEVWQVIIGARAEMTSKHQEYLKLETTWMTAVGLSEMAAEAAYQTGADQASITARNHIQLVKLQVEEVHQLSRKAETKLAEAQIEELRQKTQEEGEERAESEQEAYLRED

Purified recombinant protein (full length) of human phosphatidylserine decarboxylase (PSD), with N-terminal His tag, expressed in E. coli (Acris-OriGene) (from UniProt Q58DH2 60-416) (enzyme)
Kd: 246 nM

From patent publication US20250051409A1, “MODULATORS OF PHOSPHATIDYLSERlNE DECARBOXYLASE AND USE THEREOF” (THE NATIONAL INSTITUTE FOR BIOTECHNOLOGY IN THE NEGEV LTD., priority 2021, published 2025)
